Measured values as given in article PMC4006906 (PLoS Pathogens, 2014).

Target: H5VN04 trimeric HA (recombinant hemagglutinin) (Influenza A virus A/Vietnam/1203/2004 …, strain)
Test: SPR
Conditions: both partners purified

B1: CR6261 scFv (wild type) (scFv, V domains shown)
VH: EVQLVESGAEVKKPGSSVKVSCKASGGPFRSYAISWVRQAPGQGPEWMGGIIPIFGTTKYAPKFQGRVTITADDFAGTVYMELSSLRSEDTAMYYCAKHMGYQVRETMDVWGKGTTVTVSS
VL: QSVLTQPPSVSAAPGQKVTISCSGSSSNIGNDYVSWYQQLPGTAPKLLIYDNNKRPSGIPDRFSGSKSGTSATLGITGLQTGDEANYYCATWDRRPTAYVVFGGGTKLTVL
  binding result: binds
